How the values were obtained:
R/R DLBCL = details: cited from earlier work
DOHH2 cells = assay: DOHH2 xenograft model; format: in vivo; details: DLBCL xenograft model (DOHH2, SCID mice); avadomide oral once daily, rituximab 1 mg/kg once weekly
Description: Female severe combined immunodeficiency (SCID) mice (CB17/Icr-Prkdcscid, Charles River) were 8 weeks old, with body weights ranging from 15.0 g to 23.2 g on day 1 of these studies. Each SCID mouse was injected subcutaneously in the right flank with 5 × 10^6 DOHH2 cells (0.2-mL cell suspension). Tumors were calipered in 2 dimensions to monitor growth as their mean volume approached 100 to 150 mm^3. Fourteen days after tumor cell implantation, mice were sorted into treatment groups of 10 mice per group. Tumors were calipered twice weekly during the study. Avadomide was suspended in 0.5% carboxymethyl cellulose (0.25% Tween-80 in deionized water). Vehicle control and avadomide were each administered via oral gavage once daily; rituximab (1 mg/kg) was administered once weekly for the duration of the study.
FIGURE S1 Change in the percentage of apoptotic cells over time (A) and in vivo tumor growth response after combination treatment with avadomide and rituximab (B). Natural killer cell activity against DOHH or RL FL cell lines determined by flow cytometry is shown (A). Female CB17 severe combined immunodeficiency mice implanted subcutaneously with DOHH2 cells were administered vehicle and avadomide once daily and rituximab given 1 mg/kg once weekly (B). SEM, standard error of the mean; TGI, tumor growth inhibition. mm^3

patients with R/R DLBCL = assay: Treatment duration, modification, and exposure; format: in vivo
Description: CC‐122 hydrochloride, referred to here as CC‐122, as an active pharmaceutical ingredient in capsule (AIC) formulation, was administered orally once daily (QD). An alternate intermittent schedule of CC‐122 QD for five of every seven consecutive days (5/7), which improved tolerability and reduced the frequency and severity of neutropenia in a study of CC‐122 monotherapy in DLBCL, was also explored. CC‐292 was administered orally twice daily (BID) and CC‐223 was administered orally QD. Rituximab was administered on day 8 of cycle 1, day 1 of cycles 2–6, and day 1 of every third cycle thereafter. Patients in arm A received CC‐122 and CC‐223 with or without rituximab (starting at CC‐122 2 mg QD and CC‐223 20 mg QD), patients in arm B received CC‐122 plus CC‐292 with or without rituximab (starting at CC‐122 2 mg QD and CC‐292 500 mg BID), patients in arm C were treated with CC‐223 and CC‐292 (starting at CC‐223 20 mg QD and CC‐292 500 mg BID), and those in arm D received CC‐122 plus rituximab (starting at CC‐122 2 mg QD). In arm D, a CC‐122 3 mg formulated capsule was introduced with the same strength as CC‐122 3 mg AIC. Each dose level was cleared before the next was started. If unacceptable toxicity occurred at the initial dose level, dose reductions for CC‐122 (1.5 mg QD and 1 mg QD) and CC‐223 (15 mg QD) were allowed; no starting dose reductions for CC‐292 were planned. For arm A, the Safety Review Committee (SRC) determined which of the two drugs in the doublet to reduce. For arms B and D, the CC‐122 dose was reduced and for arm C, the CC‐223 dose was reduced. Assignment of patients to study arms was at the discretion of the investigator and based on slot availability per the study design.
Patients who experienced dose‐limiting toxicity (DLT) after receiving ≥1 dose of study treatment or those who received ≥80% of planned doses of CC‐122, CC‐223, CC‐292, and rituximab during cycle 1 without experiencing a DLT were considered DLT‐evaluable. If zero out of ≥3 or ≤1 out of six evaluable patients in a cohort experienced a DLT during cycle 1 in parallel dose cohorts, then dose escalation could occur. DLTs are defined in the Supplementary Materials; individual investigators performed response assessments and determined DLTs. The NTD was defined as the dose level at which ≥2 of six evaluable patients in a cohort experienced a DLT during cycle 1. […] During cycle 1, any adverse event (AE) that led to dose reduction was considered a DLT. Patients could resume CC‐122 at a reduced dose only if they recovered to grade ≤1 within 14 days of dose interruption; two dose reductions were allowed before the patient was withdrawn from the study. Dose reductions were permitted for CC‐122, CC‐223, and CC‐292; no dose reductions were allowed for rituximab, but treatment could be discontinued at the discretion of the investigator. […] For arms A, B, and D, CC‐122 dosing was modified to the intermittent 5/7‐day schedule based on SRC review and escalated until the MTD/RP2D was established. Treatment was given until disease progression, unacceptable toxicity, or patient/physician decision to withdraw consent.
^aTreatment duration defined as date of last derived dose – date of first dose + 1.
^bDefined as the ratio of actual dose received to planned dose over the treatment period.

[1] = Overall (all arms with the drug)

Q: Which “estimated 12‐month PFS rate” value (R/R DLBCL; patients with a complete response) does the source give for lisocabtagene maraleucel here?
A: 65%

Q: For “loncastuximab tesirine [reference compound]”, which CR rates (R/R DLBCL; monotherapy, third‐line setting) is on record?
A: 24%

Q: Which “tumor growth inhibition (TGI)” value (DOHH2 cells) does the source give for rituximab [reference compound] here?
A: 19%

Q: And the “≥1 dose interruption” value (patients with R/R DLBCL; Arm A (Avadomide + CC-223 ± R))?
A: 9 (47.4) n (%)

Q: What about the “≥1 dose interruption: Adverse event” value (patients with R/R DLBCL; Arm A (Avadomide + CC-223 ± R)) of the same substance?
A: 6 (31.6) n (%)

Q: And the “≥1 dose interruption: Other” value (patients with R/R DLBCL; Arm A (Avadomide + CC-223 ± R))?
A: 5 (26.3) n (%)

Q: And the “≥1 dose interruption” value (patients with R/R DLBCL; Arm B (Avadomide + CC-292 ± R))?
A: 2 (16.7) n (%)

Q: And the “≥1 dose interruption: Adverse event” value (patients with R/R DLBCL; Arm B (Avadomide + CC-292 ± R))?
A: 2 (16.7) n (%)

Q: And the “≥1 dose interruption: Other” value (patients with R/R DLBCL; Arm B (Avadomide + CC-292 ± R))?
A: 1 (8.3) n (%)

Q: What about the “≥1 dose interruption” value (patients with R/R DLBCL; Arm D (Avadomide + R)) of the same substance?
A: 2 (6.7) n (%)

Q: What about the “≥1 dose interruption: Adverse event” value (patients with R/R DLBCL; Arm D (Avadomide + R)) of the same substance?
A: 1 (3.3) n (%)

Q: And the “≥1 dose interruption: Other” value (patients with R/R DLBCL; Arm D (Avadomide + R))?
A: 2 (6.7) n (%)

Q: What about the “≥1 dose interruption” value (patients with R/R DLBCL; [1]) of the same substance?
A: 13 (21.3) n (%)

Q: What about the “≥1 dose interruption: Adverse event” value (patients with R/R DLBCL; [1]) of the same substance?
A: 9 (14.8) n (%)

Q: And the “≥1 dose interruption: Other” value (patients with R/R DLBCL; [1])?
A: 8 (13.1) n (%)

Q: Which “36‐month PFS” value (R/R DLBCL; patients with a complete response at 3 months) does the source give for tisagenlecleucel here?
A: 70%

— PMC9176062, “Phase Ib study of combinations of avadomide (CC‐122), CC‐223, CC‐292, and rituximab in patients with relapsed/refractory diffuse large B‐cell lymphoma” (EJHaem, 2022)
